US20110256153A1 (IMMUNOGEN, published 2011)
“And” between values parts separate entries of the source, which are not always exact repeats. Equal entries are not always repeated.

T1: human CD37 (human, UniProt P11049 1-278)
T1 construct: Tetraspanin antigen; Expressed on 300-19 cells transfected with pSRa-CD37 (entire CDS) or endogenous on WSU-DLCL-2, BJAB and Ramos lymphoma cells; also called CD37 antigen; human CD37 wildtype
T1 sequence: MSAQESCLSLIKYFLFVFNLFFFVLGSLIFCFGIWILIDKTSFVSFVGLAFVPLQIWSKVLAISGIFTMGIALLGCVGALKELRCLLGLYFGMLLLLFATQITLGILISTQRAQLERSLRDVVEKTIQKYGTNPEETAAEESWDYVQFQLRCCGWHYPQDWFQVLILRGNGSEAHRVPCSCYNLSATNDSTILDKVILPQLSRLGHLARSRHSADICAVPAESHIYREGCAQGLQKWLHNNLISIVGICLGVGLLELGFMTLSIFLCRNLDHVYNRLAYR

T2: macaque CD37 (macaque, UniProt P11049 1-277 (human entry))
T2 construct: Expressed on 300-19 cells transfected with pSRa-CD37mac (300-19/CD37mac cells); also called macaca CD37; macaque derived CD37 antigen
T2 chain: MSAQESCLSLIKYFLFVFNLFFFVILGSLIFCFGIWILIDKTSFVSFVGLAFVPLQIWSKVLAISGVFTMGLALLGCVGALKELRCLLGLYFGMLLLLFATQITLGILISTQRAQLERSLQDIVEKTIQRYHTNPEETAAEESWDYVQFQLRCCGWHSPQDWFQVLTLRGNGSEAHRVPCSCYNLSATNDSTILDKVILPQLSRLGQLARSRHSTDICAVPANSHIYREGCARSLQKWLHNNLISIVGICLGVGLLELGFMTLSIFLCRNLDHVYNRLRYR


How the values were obtained:
human CD37 [1] = target: T1, human CD37; assay: flow cytometry titration; apparent Kd; cells not named
human CD37 [2] = target: T1, human CD37; assay: cell-based or functional assay
macaque CD37 = target: T2, macaque CD37; assay: flow cytometry titration on 300-19/CD37mac cells; apparent Kd
Description: (§1) Binding specificity was tested by flow cytometry using purified antibodies. […] All murine antibodies were incubated for 3 h with either CD37-expressing 300-19 cells or the non-transfected 300-19 cells (1×10⁵ cells per sample) in 100 μL FACS buffer (RPMI-1640 medium supplemented with 2% normal goat serum). Then, the cells were pelleted, washed, and incubated for 1 h with 100 μL of FITC-conjugated goat anti-mouse IgG-antibody (Jackson Laboratory, 6 μg/mL in FACS buffer). The cells were pelleted again, washed with FACS buffer and resuspended in 200 μL of PBS containing 1% formaldehyde. Samples were acquired using a FACSCalibur flow cytometer with the HTS multiwell sampler or a FACS array flow cytometer and analyzed using CellQuest Pro (all from BD Biosciences, San Diego, US).
(§2) Flow cytometry binding assays were carried out using secondary FITC-conjugated goat-anti-human antibodies, analyzed as described in Example 2 and dose-response curves were generated by non-linear regression for each antibody. The value for the apparent dissociation constant (Kd) of each antibody was calculated using GraphPad Prism v4 (GraphPad software, San Diego, Calif.).

human CD37 [3] = target: T1, human CD37; assay: flow cytometry titration on BJAB cells; apparent Kd
Description: as §1
as §2, with “The humanized antibodies huCD37-38, huCD37-50, huCD37-51, huCD37-56 and chCD37-57 were assayed for their binding affinity to BJAB cells in comparison to their murine counterparts. Flow” for “Flow”, “goat-anti-murine and -anti-human” for “goat-anti-human”

| Binder | Kd (human CD37 [1]) | EC50 of in vitro cytotoxicity, WST-8 assay, Daudi cells (human CD37 [2]) | Kd (macaque CD37) | Kd (human CD37 [3]) | also measured |
| --- | --- | --- | --- | --- | --- |
| huCD37-50-SMCC-DM1 (antibody, human IgG1, kappa, V domains shown, DM1 attached through SMCC linker; attachment residues and load not stated, SMCC-DM1 conjugate of huCD37-50) VH: QVQLQESGPGLLKPSQSLSLTCTVSGYSITSGFAWHWIRQHPGNKLEWMGYILYSGSTVYSPSLKSRISITRDTSKNHFFLQLNSVTAADTATYYCARGYYGYGAWFAYWGQGTLVTVSA VL: EIVLTQSPATMSASPGERVTMTCSATSSVTYMHWYQQKPGQSPKRWIYDTSNLPYGVPARFSGSGSGTSYSLTISSMEAEDAATYYCQQWSDNPPTFGQGTKLEIKR | 0.7 nM | 0.13 nM |  |  | EC50 of in vitro cytotoxicity, WST-8 assay, Granta-519 cells (human CD37 [2]): 0.12 nM |
| huCD37-51 (antibody, human IgG1, kappa, V domains shown, Humanized antibody) VH: EVQLVESGPEVLKPGESLSLTCTVSGYSISSGFAWHWIRQFPGKGLEWMGYIHYSGSTNYSPSLQGRISITRDSSINQFFLQLNSVTASDTATYYCARGYYGFGAWFVYWGQGTLVTVSA VL: EIVLTQSPATMSASPGERVTMTCSATSSVTYMHWYQQKPGQSPKRWIYDTSKLASGVPARFSGSGSGTSYSLTISSMEAEDAATYYCQQWSSNPPTFGQGTKLEIKR | 2 nM |  | 14 nM | 0.8 nM |  |
| huCD37-50 (antibody, human IgG1, kappa, V domains shown, Resurfaced (humanized) antibody) VH: QVQLQESGPGLLKPSQSLSLTCTVSGYSITSGFAWHWIRQHPGNKLEWMGYILYSGSTVYSPSLKSRISITRDTSKNHFFLQLNSVTAADTATYYCARGYYGYGAWFAYWGQGTLVTVSA VL: EIVLTQSPATMSASPGERVTMTCSATSSVTYMHWYQQKPGQSPKRWIYDTSNLPYGVPARFSGSGSGTSYSLTISSMEAEDAATYYCQQWSDNPPTFGQGTKLEIKR | 0.43 nM and 0.68 nM |  | 1.8 nM | 0.2 nM |  |
| huCD37-51-SMCC-DM1 (antibody, human IgG1, kappa, V domains shown, DM1 attached through SMCC linker; attachment residues and load not stated, SMCC-DM1 conjugate of huCD37-51) VH: EVQLVESGPEVLKPGESLSLTCTVSGYSISSGFAWHWIRQFPGKGLEWMGYIHYSGSTNYSPSLQGRISITRDSSINQFFLQLNSVTASDTATYYCARGYYGFGAWFVYWGQGTLVTVSA VL: EIVLTQSPATMSASPGERVTMTCSATSSVTYMHWYQQKPGQSPKRWIYDTSKLASGVPARFSGSGSGTSYSLTISSMEAEDAATYYCQQWSSNPPTFGQGTKLEIKR | 1.6 nM | 0.2 nM |  |  | EC50 of in vitro cytotoxicity, WST-8 assay, Granta-519 cells (human CD37 [2]): 0.25 nM |
| huCD37-50-PEG4-mal-DM1 (antibody, human IgG1, kappa, V domains shown, DM1 attached through PEG4-mal linker; attachment residues and load not stated, PEG4-mal-DM1 conjugate of huCD37-50) VH: QVQLQESGPGLLKPSQSLSLTCTVSGYSITSGFAWHWIRQHPGNKLEWMGYILYSGSTVYSPSLKSRISITRDTSKNHFFLQLNSVTAADTATYYCARGYYGYGAWFAYWGQGTLVTVSA VL: EIVLTQSPATMSASPGERVTMTCSATSSVTYMHWYQQKPGQSPKRWIYDTSNLPYGVPARFSGSGSGTSYSLTISSMEAEDAATYYCQQWSDNPPTFGQGTKLEIKR | 1.1 nM |  |  |  |  |
| huCD37-57-SMCC-DM1 (antibody, human IgG1, kappa, V domains shown, DM1 attached through SMCC linker; attachment residues and load not stated, SMCC-DM1 conjugate of huCD37-57) VH: QVQLQESGPGLLKPSQSLSLTCTVSGYSITSGFAWHWIRQFPGKGLEWMGYILYSGSTVYSPSLKSRISITRDTSKNQFFLQLNSVTAADTATYYCARGYYGYGAWFAYWGQGTLVTVSA VL: EIVLTQSPATMSASPGERVTMTCSATSSVTYMHWYQQKPGQSPRRWIYDTSNLASGVPARFSGSGSGTSYSLTISSMEAEDAATYYCQQWSDNPPTFGQGTKLEIKR | 0.34 nM | 0.35 nM |  |  |  |
| huCD37-57 (antibody, human IgG1, kappa, V domains shown, Humanized antibody) VH: QVQLQESGPGLLKPSQSLSLTCTVSGYSITSGFAWHWIRQFPGKGLEWMGYILYSGSTVYSPSLKSRISITRDTSKNQFFLQLNSVTAADTATYYCARGYYGYGAWFAYWGQGTLVTVSA VL: EIVLTQSPATMSASPGERVTMTCSATSSVTYMHWYQQKPGQSPRRWIYDTSNLASGVPARFSGSGSGTSYSLTISSMEAEDAATYYCQQWSDNPPTFGQGTKLEIKR | 0.3 nM |  | 2 nM |  |  |
| huCD37-3-PEG4-mal-DM1 (antibody, human IgG1, kappa, V domains shown, DM1 attached through PEG4-mal linker; attachment residues not stated; 3.5-4 maytansinoid molecules per antibody, heavy chain version as for huCD37-3, see its note) VH: QVQVQESGPGLVAPSQTLSITCTVSGFSLTTSGVSWVRQPPGKGLEWLGVIWGDGSTNYHPSLKSRLSIKKDHSKSQVFLKLNSLTAADTATYYCAKGGYSLAHWGQGTLVTVSS VL: DIQMTQSPSSLSVSVGERVTITCRASENIRSNLAWYQQKPGKSPKLLVNVATNLADGVPSRFSGSGSGTDYSLKINSLQPEDFGTYYCQHYWGTTWTFGQGTKLEIKR | 0.35 nM |  |  |  | EC50 of in vitro cytotoxicity, BJAB cells (human CD37 [2]): 0.01 nM; EC50 of in vitro cytotoxicity, Daudi cells (human CD37 [2]): 0.018 nM; EC50 of in vitro cytotoxicity, Granta-519 cells (human CD37 [2]): 0.012 nM; EC50 of in vitro cytotoxicity, Namalwa cells (human CD37 [2]): 0.024 nM; EC50 of in vitro cytotoxicity, Raji cells (human CD37 [2]): 0.045 nM; EC50 of in vitro cytotoxicity, Raji-VCR cells (human CD37 [2]): 0.037 nM; EC50 of in vitro cytotoxicity, Ramos cells (human CD37 [2]): 0.069 nM; EC50 of in vitro cytotoxicity, SU-DHL-4 cells (human CD37 [2]): 0.024 nM |
| huCD37-56-SMCC-DM1 (antibody, human IgG1, kappa, V domains shown, DM1 attached through SMCC linker; attachment residues and load not stated, SMCC-DM1 conjugate of huCD37-56) VH: QVQLQESGPGLVKPSQSLSLTCTVSGYSITSGFAWHWIRQFPGKGLEWMGYIHYSGGTNYNPSLKSRVSITRDTSKNQFFLQLNSVTAADTATYYCARGYYGFGAWFAYWGQGTLVPVSA VL: DIVLTQSPAFMSASPGEKVTMTCSASSSVTYMHWYQQKPDQSPKRWIYDTSNLASGVPSRFSGGGSGTDYSLTISSMEAEDAATYYCQQWISDPPTFGQGTKLEIKR | 0.34 nM | 0.31 nM |  |  |  |
| huCD37-56 (antibody, human IgG1, kappa, V domains shown, Humanized antibody) VH: QVQLQESGPGLVKPSQSLSLTCTVSGYSITSGFAWHWIRQFPGKGLEWMGYIHYSGGTNYNPSLKSRVSITRDTSKNQFFLQLNSVTAADTATYYCARGYYGFGAWFAYWGQGTLVPVSA VL: DIVLTQSPAFMSASPGEKVTMTCSASSSVTYMHWYQQKPDQSPKRWIYDTSNLASGVPSRFSGGGSGTDYSLTISSMEAEDAATYYCQQWISDPPTFGQGTKLEIKR | 0.3 nM |  | 5 nM | 0.2 nM |  |
